B1: RAD51 (parent)
chain: APKKELINIKGISEAKADKILAEA

Variants of: B1
Assay: protein stability index of a GFP-peptide fusion (GPS, HEK-293T) (PSI 1-6); higher = more stable
Conditions: c terminus: a fixed tail appended
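Further: lentivirally expressed fusions sorted by FACS into six bins by GFP to DsRed ratio, PSI derived from sequencing read proportions per bin multiplied by bin number.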

Variant	protein stability index
APKKKLINIKGISEAKADKILAEA [E5K]	4
APKKCLINIKGISEAKADKILAEA [E5C]	3.56
APKKFLINIKGISEAKADKILAEA [E5F]	3.04
APKKDLINIKGISEAKADKILAEA [E5D]	4.6
APKKLLINIKGISEAKADKILAEA [E5L]	3.65
APKKNLINIKGISEAKADKILAEA [E5N]	4.22
APKKGLINIKGISEAKADKILAEA [E5G]	4.63
APKKMLINIKGISEAKADKILAEA [E5M]	3.7
APKKSLINIKGISEAKADKILAEA [E5S]	4.34
APKKVLINIKGISEAKADKILAEA [E5V]	3.65
APKKTLINIKGISEAKADKILAEA [E5T]	3.85
APKKALINIKGISEAKADKILAEA [E5A]	4.12
APKKPLINIKGISEAKADKILAEA [E5P]	4.54
APKKWLINIKGISEAKADKILAEA [E5W]	3.01
APKKHLINIKGISEAKADKILAEA [E5H]	4.48
APKKILINIKGISEAKADKILAEA [E5I]	3.4
APKKRLINIKGISEAKADKILAEA [E5R]	4.16
APKKYLINIKGISEAKADKILAEA [E5Y]	3.1
APKKQLINIKGISEAKADKILAEA [E5Q]	3.96
APKKELINIPGISEAKADKILAEA [K10P]	4.34
APKKELINIEGISEAKADKILAEA [K10E]	5.1
APKKELINIRGISEAKADKILAEA [K10R]	4.2
APKKELINIMGISEAKADKILAEA [K10M]	4.02
APKKELINIWGISEAKADKILAEA [K10W]	3.99

Variant	protein stability index
APKKELINIFGISEAKADKILAEA [K10F]	3.82
APKKELINILGISEAKADKILAEA [K10L]	4.29
APKKELINIVGISEAKADKILAEA [K10V]	4.38
APKKELINIQGISEAKADKILAEA [K10Q]	4.46
APKKELINITGISEAKADKILAEA [K10T]	4.68
APKKELINIGGISEAKADKILAEA [K10G]	5.08
APKKELINIAGISEAKADKILAEA [K10A]	4.56
APKKELINIDGISEAKADKILAEA [K10D]	5.12
APKKELINISGISEAKADKILAEA [K10S]	5.35
APKKELINIIGISEAKADKILAEA [K10I]	3.64
APKKELINIYGISEAKADKILAEA [K10Y]	3.8
APKKELINIHGISEAKADKILAEA [K10H]	4.59
APKKELINICGISEAKADKILAEA [K10C]	4.19
APKKELININGISEAKADKILAEA [K10N]	4.42
APKKELINMKGISEAKADKILAEA [I9M]	5.06
APKKELINFKGISEAKADKILAEA [I9F]	4.51
APKKELINSKGISEAKADKILAEA [I9S]	4.89
APKKELINDKGISEAKADKILAEA [I9D]	5.19
APKKELINKKGISEAKADKILAEA [I9K]	5.22
APKKELINVKGISEAKADKILAEA [I9V]	5.1
APKKELINWKGISEAKADKILAEA [I9W]	4.65
APKKELINTKGISEAKADKILAEA [I9T]	5.24
APKKELINNKGISEAKADKILAEA [I9N]	5.26
APKKELINRKGISEAKADKILAEA [I9R]	5.12

Variant	protein stability index
APKKELINEKGISEAKADKILAEA [I9E]	5.68
APKKELINHKGISEAKADKILAEA [I9H]	4.66
APKKELINCKGISEAKADKILAEA [I9C]	5.4
APKKELINLKGISEAKADKILAEA [I9L]	4.62
APKKELINPKGISEAKADKILAEA [I9P]	5.4
APKKELINYKGISEAKADKILAEA [I9Y]	4.91
APKKELINGKGISEAKADKILAEA [I9G]	5.11
APKKELINQKGISEAKADKILAEA [I9Q]	4.8
APKKEHINIKGISEAKADKILAEA [L6H]	5.13
APKKEQINIKGISEAKADKILAEA [L6Q]	4.79
APKKEPINIKGISEAKADKILAEA [L6P]	5.31
APKKEGINIKGISEAKADKILAEA [L6G]	4.73
APKKENINIKGISEAKADKILAEA [L6N]	4.94
APKKEDINIKGISEAKADKILAEA [L6D]	5.45
APKKERINIKGISEAKADKILAEA [L6R]	4.61
APKKECINIKGISEAKADKILAEA [L6C]	4.97
APKKEKINIKGISEAKADKILAEA [L6K]	5
APKKEFINIKGISEAKADKILAEA [L6F]	4.4
APKKEYINIKGISEAKADKILAEA [L6Y]	4.46
APKKEEINIKGISEAKADKILAEA [L6E]	5.28
APKKESINIKGISEAKADKILAEA [L6S]	4.79
APKKEVINIKGISEAKADKILAEA [L6V]	5.2
APKKEWINIKGISEAKADKILAEA [L6W]	4.12
APKKEIINIKGISEAKADKILAEA [L6I]	4.4

Variant	protein stability index
APKKEMINIKGISEAKADKILAEA [L6M]	4.92
APKKEAINIKGISEAKADKILAEA [L6A]	5.16
APKKETINIKGISEAKADKILAEA [L6T]	5.06
APKYELINIKGISEAKADKILAEA [K4Y]	4.52
APKTELINIKGISEAKADKILAEA [K4T]	4.69
APKEELINIKGISEAKADKILAEA [K4E]	5.22
APKGELINIKGISEAKADKILAEA [K4G]	4.57
APKFELINIKGISEAKADKILAEA [K4F]	4.5
APKWELINIKGISEAKADKILAEA [K4W]	3.98
APKMELINIKGISEAKADKILAEA [K4M]	4.13
APKHELINIKGISEAKADKILAEA [K4H]	4.17
APKAELINIKGISEAKADKILAEA [K4A]	4.44
APKLELINIKGISEAKADKILAEA [K4L]	4.19
APKNELINIKGISEAKADKILAEA [K4N]	4.95
APKRELINIKGISEAKADKILAEA [K4R]	4.39
APKCELINIKGISEAKADKILAEA [K4C]	4.68
APKVELINIKGISEAKADKILAEA [K4V]	4.82
APKSELINIKGISEAKADKILAEA [K4S]	4.96
APKQELINIKGISEAKADKILAEA [K4Q]	4.6
APKPELINIKGISEAKADKILAEA [K4P]	5.05
APKIELINIKGISEAKADKILAEA [K4I]	4.25
APKDELINIKGISEAKADKILAEA [K4D]	5.31
APKKELINIKGQSEAKADKILAEA [I12Q]	5.33
APKKELINIKGASEAKADKILAEA [I12A]	5.28

Variant	protein stability index
APKKELINIKGKSEAKADKILAEA [I12K]	5.36
APKKELINIKGHSEAKADKILAEA [I12H]	5.44
APKKELINIKGCSEAKADKILAEA [I12C]	4.96
APKKELINIKGYSEAKADKILAEA [I12Y]	4.13
APKKELINIKGTSEAKADKILAEA [I12T]	5.16
APKKELINIKGSSEAKADKILAEA [I12S]	5.27
APKKELINIKGESEAKADKILAEA [I12E]	4.54
APKKELINIKGPSEAKADKILAEA [I12P]	5.15
APKKELINIKGLSEAKADKILAEA [I12L]	4.64
APKKELINIKGGSEAKADKILAEA [I12G]	4.69
APKKELINIKGRSEAKADKILAEA [I12R]	5.14
APKKELINIKGVSEAKADKILAEA [I12V]	4.7
APKKELINIKGWSEAKADKILAEA [I12W]	4.36
APKKELINIKGMSEAKADKILAEA [I12M]	4.98
APKKELINIKGFSEAKADKILAEA [I12F]	4.33
APKKELINIKGDSEAKADKILAEA [I12D]	5.91
APKKELINIKGNSEAKADKILAEA [I12N]	5.06
APKKELIFIKGISEAKADKILAEA [N8F]	3.76
APKKELIYIKGISEAKADKILAEA [N8Y]	4.39
APKKELIAIKGISEAKADKILAEA [N8A]	4.7
APKKELIKIKGISEAKADKILAEA [N8K]	4.13
APKKELIHIKGISEAKADKILAEA [N8H]	4.69
APKKELIEIKGISEAKADKILAEA [N8E]	5.07
APKKELITIKGISEAKADKILAEA [N8T]	4.01

Variant	protein stability index
APKKELILIKGISEAKADKILAEA [N8L]	3.5
APKKELIQIKGISEAKADKILAEA [N8Q]	4.67
APKKELIIIKGISEAKADKILAEA [N8I]	3.43
APKKELIRIKGISEAKADKILAEA [N8R]	4.79
APKKELIDIKGISEAKADKILAEA [N8D]	4.88
APKKELISIKGISEAKADKILAEA [N8S]	4.32
APKKELIPIKGISEAKADKILAEA [N8P]	4.88
APKKELIVIKGISEAKADKILAEA [N8V]	4.07
APKKELIWIKGISEAKADKILAEA [N8W]	3.75
APKKELIMIKGISEAKADKILAEA [N8M]	4.17
APKKELRNIKGISEAKADKILAEA [I7R]	4.59
APKKELSNIKGISEAKADKILAEA [I7S]	5.52
APKKELHNIKGISEAKADKILAEA [I7H]	5.01
APKKELVNIKGISEAKADKILAEA [I7V]	5.39
APKKELKNIKGISEAKADKILAEA [I7K]	4.78
APKKELLNIKGISEAKADKILAEA [I7L]	5.31
APKKELGNIKGISEAKADKILAEA [I7G]	4.8
APKKELMNIKGISEAKADKILAEA [I7M]	4.99
APKKELYNIKGISEAKADKILAEA [I7Y]	4.73
APKKELNNIKGISEAKADKILAEA [I7N]	4.7
APKKELTNIKGISEAKADKILAEA [I7T]	5.04
APKKELCNIKGISEAKADKILAEA [I7C]	4.21
APKKELANIKGISEAKADKILAEA [I7A]	5.13
APKKELFNIKGISEAKADKILAEA [I7F]	3.8

Variant	protein stability index
APKKELPNIKGISEAKADKILAEA [I7P]	5.04
APKKELENIKGISEAKADKILAEA [I7E]	5.17
APKKELDNIKGISEAKADKILAEA [I7D]	5.31
APKKELQNIKGISEAKADKILAEA [I7Q]	4.83
APKKELWNIKGISEAKADKILAEA [I7W]	4.49
APKKELINIKWISEAKADKILAEA [G11W]	3.4
APKKELINIKIISEAKADKILAEA [G11I]	3.39
APKKELINIKSISEAKADKILAEA [G11S]	5.46
APKKELINIKRISEAKADKILAEA [G11R]	4.37
APKKELINIKVISEAKADKILAEA [G11V]	4.37
APKKELINIKKISEAKADKILAEA [G11K]	4.68
APKKELINIKLISEAKADKILAEA [G11L]	3.69
APKKELINIKEISEAKADKILAEA [G11E]	4.74
APKKELINIKPISEAKADKILAEA [G11P]	4.93
APKKELINIKTISEAKADKILAEA [G11T]	4.59
APKKELINIKHISEAKADKILAEA [G11H]	4.8
APKKELINIKYISEAKADKILAEA [G11Y]	4.18
APKKELINIKDISEAKADKILAEA [G11D]	4.9
APKKELINIKAISEAKADKILAEA [G11A]	5.12
APKKELINIKFISEAKADKILAEA [G11F]	3.69
APKKELINIKQISEAKADKILAEA [G11Q]	4.72
APKKELINIKMISEAKADKILAEA [G11M]	3.98
APKKELINIKNISEAKADKILAEA [G11N]	4.62
APKKELINIKCISEAKADKILAEA [G11C]	4.17

Variant	protein stability index
APVKELINIKGISEAKADKILAEA [K3V]	5.06
APWKELINIKGISEAKADKILAEA [K3W]	3.81
APTKELINIKGISEAKADKILAEA [K3T]	4.97
APYKELINIKGISEAKADKILAEA [K3Y]	3.85
APKKELINIKGITEAKADKILAEA [S13T]	5.02
APKKELINIKGIIEAKADKILAEA [S13I]	3.86
APKKELINIKGIREAKADKILAEA [S13R]	4.36
APKKELINIKGICEAKADKILAEA [S13C]	4.43
APKKELINIKGIKEAKADKILAEA [S13K]	4.7
APKKELINIKGIPEAKADKILAEA [S13P]	4.88
APKKELINIKGIEEAKADKILAEA [S13E]	5.23
APKKELINIKGIFEAKADKILAEA [S13F]	3.73
APKKELINIKGIMEAKADKILAEA [S13M]	4.56
APKKELINIKGILEAKADKILAEA [S13L]	4.21
APKKELINIKGIVEAKADKILAEA [S13V]	4.02
APKKELINIKGIAEAKADKILAEA [S13A]	4.97
APKKELINIKGINEAKADKILAEA [S13N]	4.65
APKKELINIKGIDEAKADKILAEA [S13D]	5.12
APKKELINIKGIHEAKADKILAEA [S13H]	5.38
APKKELINIKGIQEAKADKILAEA [S13Q]	4.83

Source: the supplement of paper PMC10567573
